Experimental data: article PMC8408477

How the values were obtained:
GST-RhBBX28 [1] = target: T1, GST-RhBBX28 (Rosa hybrida, UniProt A0A8K1NC92 1-241); assay: EMSA
T1 sequence: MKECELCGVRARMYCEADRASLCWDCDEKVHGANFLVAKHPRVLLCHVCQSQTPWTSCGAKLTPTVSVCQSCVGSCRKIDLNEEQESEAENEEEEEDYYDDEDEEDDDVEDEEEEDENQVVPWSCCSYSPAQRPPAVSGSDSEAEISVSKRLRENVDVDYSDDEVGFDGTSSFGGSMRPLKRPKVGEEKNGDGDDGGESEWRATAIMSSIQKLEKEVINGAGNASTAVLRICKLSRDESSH

GST-RhBBX28 [2] = target: T1, GST-RhBBX28; assay: competition
GST-RhBBX28 [3] = target: T1, GST-RhBBX28; assay: EMSA; remark: listed apart in the source
GST-RhPIF8 [4] = target: T2, GST-RhPIF8 (Rosa hybrida, UniProt A0A8K1NC13 1-452); assay: EMSA
T2 sequence: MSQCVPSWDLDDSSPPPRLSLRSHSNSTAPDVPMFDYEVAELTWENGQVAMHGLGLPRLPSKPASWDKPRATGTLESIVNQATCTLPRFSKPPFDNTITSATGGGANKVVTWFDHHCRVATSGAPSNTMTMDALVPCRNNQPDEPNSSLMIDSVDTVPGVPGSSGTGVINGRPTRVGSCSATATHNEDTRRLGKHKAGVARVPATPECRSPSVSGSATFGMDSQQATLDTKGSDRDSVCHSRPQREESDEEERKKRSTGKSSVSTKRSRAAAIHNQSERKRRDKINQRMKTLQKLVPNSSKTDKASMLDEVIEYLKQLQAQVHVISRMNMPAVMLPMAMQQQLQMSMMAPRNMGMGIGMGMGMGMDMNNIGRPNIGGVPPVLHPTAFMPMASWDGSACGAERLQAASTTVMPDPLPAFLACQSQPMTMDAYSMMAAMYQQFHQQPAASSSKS

GST-RhPIF8 [5] = target: T2, GST-RhPIF8; assay: competition

B1: RhSDH1 probe (dsDNA)
DNA 1: GTCAACTCCTCACGTTTCATGAGTCTTCTATAGGAATCAACACGTTACATTCTGCA
DNA 2: TGCAGAATGTAACGTGTTGATTCCTATAGAAGACTCATGAAACGTGAGGAGTTGAC
B1: binds (GST-RhBBX28 [1]).

B2: RhSDH1 mProbe (dsDNA)
DNA 1: GTCAACTCCTAAAAAATCATGAGTCTTCTATAGGAATCAAAAAAAAACATTCTGCA
DNA 2: TGCAGAATGTTTTTTTTTGATTCCTATAGAAGACTCATGATTTTTTAGGAGTTGAC
B2: no binding (GST-RhBBX28 [2]).

B3: RhSDH1 probe2 (dsDNA)
DNA 1: AGGTTTTGCAACTAGAAACGTGTTAGAAGAATAATCACAG
DNA 2: CTGTGATTATTCTTCTAACACGTTTCTAGTTGCAAAACCT
B3: no binding (GST-RhBBX28 [3]).

B4: RhBBX28 probe (dsDNA)
DNA 1: GCCTAACACATGGCCACCATACCACCACGACCCTGC
DNA 2: GCAGGGTCGTGGTGGTATGGTGGCCATGTGTTAGGC
B4: binds (GST-RhPIF8 [4]).

B5: RhBBX28 mProbe (dsDNA)
DNA 1: GCCTAAAAAAAAACCACCATACCACAAAAAACCTGC
DNA 2: GCAGGTTTTTTGTGGTATGGTGGTTTTTTTTTAGGC
B5: no binding (GST-RhPIF8 [5]).
